Assay results: the Human Domainome abundance scans (Beltran et al. 2025)

B1: Dystrobrevin alpha, residues 235 to 294; numbered along this chain, Q9Y4J8 (parent)
chain: ENVFHPVECSYCHSESMMGFRYRCQQCHNYQLCQDCFWRGHAGGSHSNQHQMKEYTSWKS
B2: Myocardin, residues 363 to 406; numbered along this chain, Q8IZQ8 (parent)
chain: KPGPLPPNLDDLKVSELRQQLRIRGLPVSGTKTALMDRLRPFQD

Variants of: B1
Test: abundance fitness (aPCA) (normalised: wild type 0, dead -1); higher = more abundant; growth selection in yeast, the domain comes from the species named
Settings: Homo sapiens

Abundance fitness: each site, then its substitutions
S60: V 0.034, P -0.065, C -0.276, L -0.196, D 0.335, G 0.064, Q 0.216, H 0.112, A -0.446, N -0.216, Y -0.207, I -0.519, R 0.134, F 0.02

Variants of: B2
Test: as above
Settings: Homo sapiens

Abundance fitness of substitutions, site by site:
P4: S 0.078, V 0.09, E 0.107, H 0.093, Q 0.136, T 0.329, M 0.392, L 0.102, R -0.059, Y 0.368, A 0.069, K 0.371, F 0.755, D 0.276, C -0.079, N 0.463, G -0.229
Q20: S -0.711, P -0.785, C -0.395, K -0.314, Y -0.38, R -0.602, V -0.57, W -0.767, G -0.697, I 0.05, F -0.093, L 0.073, D -0.608, H 0.073, A 0.004
D11: N -0.004, C -0.272, L 0.009, R -0.135, E -0.082, G -0.074, P -0.714, Y -0.183, W -0.441, V 0, M 0.063, S 0.27, F -0.175, T 0.135, A 0.085, Q -0.007, K 0.083
P7: I 0.107, G 0.142, Q 0.266, V 0.227, L -0.001, M 0.239, W -0.414, Y -0.085, E 0.253, S -0.009, T 0.018, N 0.346, D 0.052, H 0.188, K 0.464, A 0.12
L5: N -0.276, Y -0.204, Q -0.131, R -0.448, G -0.283, K -0.514, H -0.311, F -0.307, M -0.139, D -0.245, E -0.13, I 0.011, S -0.341, C -0.044, W -0.984, T -0.302
P2: W -0.231, R 0.085, F 0.328, N -0.011, Y 0.136, Q 0.374, I 0.466, V 0.39, K 0.284, S 0.184, E 0.401, D 0.407, H -0.093, A 0.25, M 0.387, T -0.016
L12: R -0.394, N -0.507, Q -0.506, S -0.274, H -0.614, F 0.053, A -0.425, P -0.899, Y 0.298, D -0.429, C -0.499, W -0.315, V -0.497, K -0.284, E -0.369, T -0.401, G -0.638
N8: C -0.342, I -0.408, A -0.187, E -0.232, L -0.35, Q -0.154, S -0.444, W -0.915, D -0.246, R -0.116, G -0.623, P -0.541, M -0.274, H -0.373, V -0.048
G3: T 0.099, P -0.265, L -0.025, H 0.059, Y -0.067, Q 0.295, D -0.228, S -0.077, V 0.102, C -0.792, K 0.245, M 0.146, W -0.607, R 0.016, A 0.126
K1: T -0.521, C -0.286, D -0.268, A -0.671, W -0.98, N 0.11, M -0.835, Y -0.608, V -0.643, I 0.021, L -0.666, S -0.672, R -1, G -0.47
R22: K 0.063, G -0.531, C -0.194, M -0.619, H -0.624, L -0.374, P -0.818, A -0.138, I -0.384, Q -0.928, N -0.371
S15: I -0.23, T 0.071, E 0.171, G -0.122, F -0.22, M -0.245, V -0.243, D 0.015, W -0.163, Q -0.261, P -0.346, H 0.023, R -0.22, C -0.168, A 0.113, Y -0.274, N -0.288, L -0.688
P6: W -0.484, N -0.34, E -0.131, I -0.361, F -0.356, T -0.197, M -0.135, A -0.02, L -0.26, Q -0.267, D -0.195, G -0.153, V -0.133, S -0.095
L21: Q -0.517, K -0.296, W -1.02, M -0.321, V -0.432, S -0.94, P -0.523, G -0.68, C -0.271, A -0.037, E -0.42, N -0.244, D -0.361
Q19: T -0.439, P -0.761, W -0.717, H -0.412, A -0.194, M -0.206, L -0.198, C -0.464, V -0.544, S -0.261, D -0.05, Y -0.124, E 0.029, G -0.368
E16: S -0.47, L -0.826, Y -0.323, P -0.939, H -0.983, W -0.613, V -0.481, A -0.295, M -0.615, T -0.515, K -0.842, D -0.27, R -0.827
V14: W -1.02, Q -0.994, A -0.465, T -0.222, P -0.247, H -0.396, C -0.603, F -0.939, K -0.157, D -0.702, G -0.757, L -0.16, R -1.02, S -0.486, M -0.116
L17: N -1, G -0.649, Y -1.02, K -0.345, V -0.606, R -0.606, T -0.779, C -1.31, I -0.6, A -0.583, H -0.878, M -0.265, W -0.798, D -0.86, E -0.454
L9: K -0.741, T -0.731, R -0.524, W -0.615, N -0.871, P -0.513, A -0.876, S -0.605, V -0.024, H -0.542, C -0.371, E -0.807, Q -0.278, M -0.543, G -0.491, I -0.289, D -0.873
R18: K 0.032, G -0.888, L -0.44, F -0.481, C 0.116, T -0.388, H -0.321, I -0.133, V -0.312, E -0.177, A -0.366, M -0.503, P -0.727, W -0.861, Q -0.179, Y -0.744
D10: R -0.147, T -0.178, S -0.257, A 0.178, Q -0.163, N -0.078, F -0.582, E 0.287, H -0.315, K -0.076, G 0.311, V 0.076, W 0.104, P -0.552, C 0.245, Y 0.026
